Experimental data as given in US20250277767A1 (RAMOT AT TEL AVIV UNIVERSITY, published 2025).

What was measured:
[1] = target: T1, EspB of Citrobacter rodentium (Citrobacter rodentium DBS100); assay: western blot of culture supernatants, detection with mAb-EspB-B7
T1 construct: also called C. rodentium EspB

[2] = target: T2, native EspB of wild-type EPEC; assay: as above
T2 construct: also called EspB in the assembled T3SS; WT EPEC

B1: mAb-EspB-B7 (antibody, V domains shown)
VH: EVQLLESGGGLVQPGGSLRLSCAASGFTFSHYAMNWVRQAPGKGLEWVSAINSNGDSTYYPDTVKDRFTISRDNSKNTLYLQMNSLRAEDTAVYYCARDRRAGYFDYWGQGTLVTVSS
VL: DIVLTQPPSASGTPGQRVTISCSGSRDNIGKNYVSWYQQLPGTAPKLLIYRNNQRPSGVPDRFSGSKSGTSASLAISGLRSEDEADYYCSAWDTSLNAYVFGPGTQLTVL
notes: also called mAb-B7; EspB-specific monoclonal antibody
[1]
  binding result: binds
[2]
  binding result: binds
